MFI data for one substance are collected here from US20220348665A1.

The target in assay [1] is human IGF1R, endogenous, on the surface of breast cancer cell lines (MCF-7, JIMT-1, BT474) (human) (UniProt P08069). Put plainly: FACS on BT474 cells (FL1-H), anti-human FITC; same table: Untreated 1.8, 2nd Ab only 1.93.
Assay [2] has the same target. Put plainly: FACS on JIMT-1 cells (FL1-H), anti-human FITC; same table: Untreated 1.36, 2nd Ab only 1.89.
For assay [3] the target is unchanged. Put plainly: FACS on MCF-7 cells (FL1-H), anti-human FITC; same table: Untreated 2.51, 2nd Ab only 4.53.

Chain of IMC-A12 (antibody) (VH): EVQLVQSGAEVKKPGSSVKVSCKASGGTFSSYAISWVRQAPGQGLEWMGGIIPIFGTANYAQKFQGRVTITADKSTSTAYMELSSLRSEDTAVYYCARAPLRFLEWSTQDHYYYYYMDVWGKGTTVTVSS
Chain of IMC-A12 (antibody) (VL): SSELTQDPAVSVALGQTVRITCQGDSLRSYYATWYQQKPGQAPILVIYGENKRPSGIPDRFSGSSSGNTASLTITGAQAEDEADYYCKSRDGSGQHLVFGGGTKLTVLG

IMC-A12 (antibody): the MFI turned out to be 18.3 in assay [1], 23 in assay [2] and 40.1 in assay [3].
